From PMC2923267 (Biochemistry, 2010)

Target: the molecule itself
Experiment: AUC

B1: WbpE from Pseudomonas aeruginosa PAO1 (enzyme, UniProt Q9HZ76 1-359, looked up)
chain: MIEFIDLKNQQARIKDKIDAGIQRVLRHGQYILGPEVTELEDRLADFVGAKYCISCANGTDALQIVQMALGVGPGDEVITPGFTYVATAETVALLGAKPVYVDIDPRTYNLDPQLLEAAITPRTKAIIPVSLYGQCADFDAINAIASKYGIPVIEDAAQSFGASYKGKRSCNLSTVACTSFFPSKPLGCYGDGGAIFTNDDELATAIRQIARHGQDRRYHHIRVGVNSRLDTLQAAILLPKLEIFEEEIALRQKVAAEYDLSLKQVGIGTPFIEVNNISVYAQYTVRMDNRESVQASLKAAGVPTAVHYPIPLNKQPAVADEKAKLPVGDKAATQVMSLPMHPYLDTASIKIICAALTN
Question: With B1 as the protein, how does the “stoichiometry N” value read?
Answer: Its value is 2.
